Source: patent publication US8722043B2, “Induction of p53 expression by neutralization of neuropilin-2 for the treatment of cancers” (Diaclone, priority 2008, dated 2014)

Tests used:
Format in all cases: cell-based, human
HT29-NRP-2 cells = test: Annexin V-APC apoptosis test
Method: (§1) In order to determine the ability of the ITAC-B1 antibody to induce apoptosis of tumour cells expressing NRP-2, an in vitro Annexin V-APC apoptosis test was carried out (BD Pharmingen, San Diego, Calif.). This test is based on the externalization of phosphatidylserin by apoptotic cells and on the binding of Annexin V-APC to this molecule.
1 ml of DMEM medium containing 10% of inactivated FCS and 100 000 HT29-NRP-2 cells or 100 000 HT29ctrl cells were seeded, per well, into a 24-well Nunc plate. […] In parallel, “cells alone” controls were carried out, as were negative controls (anti-human mouse IgG1 antibody (BZ1) at the same concentrations as the ITAC-B1 antibody).
[…] When the cells began to detach, 500 μl of DMEM medium-10% FCS were added per well. The cells were then centrifuged, washed twice in PBS, and then taken up in 300 μl of 1× binding buffer (provided in the kit), and then 5 μl of Annexin V-APC were subsequently added to 100 μl of this solution.
The panels of FIG. 13 are point-cloud representations of the flow cytometry analysis. For each of the panels, the fluorescence intensity (corresponding to the labelling of the cells with Annexin V-APC) is represented on the x-axis. The y-axis indicates the granulosity of the cells (Side Scatter or SSC). […] The percentage of cells labelled with Annexin V-APC (corresponding to the percentage of cells having entered into apoptosis) is indicated at the bottom-right of each panel.
The apoptosis induced was then measured by labelling with Annexin V-APC as described above.
The panels of FIG. 15 are point-cloud representations of the flow cytometry analysis. For each of the panels, the fluorescence intensity (corresponding to the labelling of the cells with Annexin V-APC) is represented on the x-axis. The y-axis indicates the granulosity (side scatter) of the cells. The conditions of treatment with the antibodies and the Avastin® are indicated to the left of the panels. The percentage of cells labelled with the Annexin V-APC, corresponding to the percentage of cells having entered into apoptosis, is indicated at the top-right of each panel.

HT29ctrl cells = test: Annexin V-APC apoptosis test; details: 0.5, 1 and 5 μg/ml; 16 hours
Method: as §1
1 ml of DMEM medium containing 10% of inactivated FCS and 100 000 HT29-NRP-2 cells or 100 000 HT29ctrl cells were seeded, per well, into a 24-well Nunc plate. After adhesion of the cells (3 hours), three concentrations of ITAC-B anti-NRP-2 antibody (0.5 μg/ml, 1 μg/ml and 5 μg/ml) were tested in various wells. In parallel, “cells alone” controls were carried out, as were negative controls (anti-human mouse IgG1 antibody (BZ1) at the same concentrations as the ITAC-B1 antibody).
After incubation for 16 hours, the culture supernatant was drawn off and 500 μl of trypsin-EDTA were added to each well and left in contact for 10 minutes. When the cells began to detach, 500 μl of DMEM medium-10% FCS were added per well. […]
For each of the panels of FIG. 12, the number of events (number of cells) is indicated on the y-axis and the fluorescence intensity (corresponding to the labelling of the cells with the Annexin V-APC) is represented on the x-axis. […]

p53 protein = test: Western blotting of p53 expression after antibody treatment; details: 20 ng/ml, 48 hours
Method: The HT29, HT29-NRP-2, Colo320^siRNA-ctrl tumour cells and Colo320^siRNA-NRP-2 were exposed to 20 ng/ml of ITAC-B1 antibody or of control antibody, and cultured for 48 hours. After lysis of the cell lines, migration of the protein pellets obtained on a 10% polyacrylamide gel (10 μg of protein per well) and then transfer onto a PVDF membrane, the membrane was incubated overnight with the anti-p53 primary antibody (BD Biosciences, mouse anti-human p53) diluted to 1/500. After washing in TBS/0.1% Tween20, the membranes were incubated for 1 hour with an anti-mouse IgG-HRP secondary antibody diluted to 1/6000. The results are represented in FIG. 19.

B1: ITAC-B1: anti-human neuropilin-2 murine monoclonal antibody, VH SEQ ID No. 2, VL SEQ ID No. 4, produced by hybridoma CNCM 1-4054 (antibody, listed as Mus musculus, V domains shown)
VH: EVKLQESGAELVKPGASVKLSCTVSGFNIKDTYIHWVIQRPEQGLEWLGRIDPANGNTKYDPKFQGKATITADTSSNTAYLQLSSLTSEDTAVYYCARWAVVGDYWGQGTTLTVSS
VL: YCDHPLYKFLHVSAGDRVTITCKASQSVSDDVAWYQQKPGQSPKLLIYSASNRYTGVPDRFTGSGYGTDFTFTISTVQPEDLAVYFCQQDYSSPTFGSGTKLELK
apoptosis induced (Annexin V-APC labelling) as a function of concentration (HT29-NRP-2 cells; 0.5, 1 and 5 μg/ml, 16 hours): dose-dependent
dose at which apoptosis of cells expressing NRP-2 is induced (HT29-NRP-2 cells; 16 hours incubation, 0.5, 1 and 5 μg/ml tested): greater than or equal to 1 μg/ml
combined action with anticancer molecules (5-FU, irinotecan) on apoptosis (HT29-NRP-2 cells; FIG. 13): synergy of action
percentage of cells labelled with Annexin V-APC (apoptosis) (HT29-NRP-2 cells; ITAC-B1 2.5 μg/ml jointly with 5-FU 10 μg/ml (FIG. 13)): ~78.5%
percentage of cells labelled with Annexin V-APC (apoptosis) (HT29-NRP-2 cells; ITAC-B1 2.5 μg/ml with irinotecan 10 μg/ml (FIG. 13)): ~51%
percentage of cells labelled with Annexin V-APC (apoptosis) (HT29-NRP-2 cells; ITAC-B1 5 μg/ml jointly with 5-FU 10 μg/ml (FIG. 13)): ~80%
percentage of cells labelled with Annexin V-APC (apoptosis) (HT29-NRP-2 cells; ITAC-B1 5 μg/ml with irinotecan 10 μg/ml (FIG. 13)): ~58%
percentage of cells labelled with Annexin V-APC (apoptosis) (HT29-NRP-2 cells; antibody 20 μg/ml, 6 hours, cells cultured with Avastin (bevacizumab) 50 μg/ml (FIG. 15)): approximately 58%
percentage of cells labelled with Annexin V-APC (apoptosis) (HT29-NRP-2 cells; antibody 20 μg/ml, 6 hours, without Avastin (FIG. 15)): ~51%
ability to induce apoptosis of tumour cells expressing neuropilin-2 (selection of clones) (HT29-NRP-2 cells; selection criterion of the hybridoma clones): ability to induce apoptosis of tumour cells expressing neuropilin-2
apoptosis (Annexin V-APC labelling) (HT29ctrl cells): does not bring about the apoptosis of cells not expressing NRP-2
expression of p53 in lines which express NRP-2 (p53 protein; HT29-NRP-2 and Colo320^siRNA-ctrl): partly restores the expression of p53
expression of p53 in lines which do not express NRP-2 (p53 protein; HT29-ctrl and Colo320^siRNA-NRP-2, with or without antibody): strongly expressed
